# Assay results from patent publication US20240209076A1 (KODIAK SCIENCES, published 2024).
# Target: recombinant human IL-6 (human, UniProt P05231 30-212)
# Test: SPR, IL-6 on CM5 chip, Fab lysate, 25 C
# Experimental: Three ranges of antigen density (100-150 RU, 300-400 RU, 400-600 RU) were obtained by using variable flow times for each chip channel, later blocked with ethanolamine. Supernatants of the 96-well filtered culture lysates were injected at 50 μL/min for 120 seconds. Fitting of dissociation curves (300 seconds) to single exponential decay curve was used for the determination of dissociation rates (koff). Chip surfaces were regenerated with 10 mM Glycine pH 1.7 solution injected at 50 μL/min during 60 seconds after every cycle of sample binding and dissociation.
# recombinant human IL-6, sequence (P05231 30-212 limits assumed): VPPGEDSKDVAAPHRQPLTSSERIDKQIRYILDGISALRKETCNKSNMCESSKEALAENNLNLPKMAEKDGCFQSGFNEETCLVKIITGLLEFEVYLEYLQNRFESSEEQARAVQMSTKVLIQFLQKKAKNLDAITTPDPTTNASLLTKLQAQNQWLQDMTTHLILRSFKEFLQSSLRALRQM
row,koff,Binder
1,0.00394 s⁻¹,"anti-IL-6 Fab, light chain S26G (Fab, V domains shown, see m39) VH: EVQLVESGGGLVQPGGSLRLSCAASGFTFSPFAMSWVRQAPGKGLEWVAKISPGGSWTYYSDTVTGRFTFSLDTSKSTAYLQMNSLRAEDTAVYYCARQLWGYYALDIWGQGTLVTVSS VL: DIQLTQSPSSLSASVGDRVTITCSAGISVSYMYWYQQKPGKAPKLLIYDMSNLASGVPSRFSGSGSGTDFTLTISSLQPEDFATYYCMQWSGYPYTFGQGTKVEIK"
2,0.00466 s⁻¹,"anti-IL-6 Fab, light chain S51D (Fab, V domains shown, see m39) VH: EVQLVESGGGLVQPGGSLRLSCAASGFTFSPFAMSWVRQAPGKGLEWVAKISPGGSWTYYSDTVTGRFTFSLDTSKSTAYLQMNSLRAEDTAVYYCARQLWGYYALDIWGQGTLVTVSS VL: DIQLTQSPSSLSASVGDRVTITCSASISVSYMYWYQQKPGKAPKLLIYDMDNLASGVPSRFSGSGSGTDFTLTISSLQPEDFATYYCMQWSGYPYTFGQGTKVEIK"
3,0.00412 s⁻¹,"anti-IL-6 Fab, light chain S24I (Fab, V domains shown, see m39) VH: EVQLVESGGGLVQPGGSLRLSCAASGFTFSPFAMSWVRQAPGKGLEWVAKISPGGSWTYYSDTVTGRFTFSLDTSKSTAYLQMNSLRAEDTAVYYCARQLWGYYALDIWGQGTLVTVSS VL: DIQLTQSPSSLSASVGDRVTITCIASISVSYMYWYQQKPGKAPKLLIYDMSNLASGVPSRFSGSGSGTDFTLTISSLQPEDFATYYCMQWSGYPYTFGQGTKVEIK"
4,0.00398 s⁻¹,"anti-IL-6 Fab, light chain S28W (Fab, V domains shown, see m39) VH: EVQLVESGGGLVQPGGSLRLSCAASGFTFSPFAMSWVRQAPGKGLEWVAKISPGGSWTYYSDTVTGRFTFSLDTSKSTAYLQMNSLRAEDTAVYYCARQLWGYYALDIWGQGTLVTVSS VL: DIQLTQSPSSLSASVGDRVTITCSASIWVSYMYWYQQKPGKAPKLLIYDMSNLASGVPSRFSGSGSGTDFTLTISSLQPEDFATYYCMQWSGYPYTFGQGTKVEIK"
5,0.00416 s⁻¹,"anti-IL-6 Fab, light chain S24K (Fab, V domains shown, see m39) VH: EVQLVESGGGLVQPGGSLRLSCAASGFTFSPFAMSWVRQAPGKGLEWVAKISPGGSWTYYSDTVTGRFTFSLDTSKSTAYLQMNSLRAEDTAVYYCARQLWGYYALDIWGQGTLVTVSS VL: DIQLTQSPSSLSASVGDRVTITCKASISVSYMYWYQQKPGKAPKLLIYDMSNLASGVPSRFSGSGSGTDFTLTISSLQPEDFATYYCMQWSGYPYTFGQGTKVEIK"
6,0.00416 s⁻¹,"anti-IL-6 Fab, light chain S24V (Fab, V domains shown, see m39) VH: EVQLVESGGGLVQPGGSLRLSCAASGFTFSPFAMSWVRQAPGKGLEWVAKISPGGSWTYYSDTVTGRFTFSLDTSKSTAYLQMNSLRAEDTAVYYCARQLWGYYALDIWGQGTLVTVSS VL: DIQLTQSPSSLSASVGDRVTITCVASISVSYMYWYQQKPGKAPKLLIYDMSNLASGVPSRFSGSGSGTDFTLTISSLQPEDFATYYCMQWSGYPYTFGQGTKVEIK"
7,0.00427 s⁻¹,"anti-IL-6 Fab, light chain S26H (Fab, V domains shown, see m39) VH: EVQLVESGGGLVQPGGSLRLSCAASGFTFSPFAMSWVRQAPGKGLEWVAKISPGGSWTYYSDTVTGRFTFSLDTSKSTAYLQMNSLRAEDTAVYYCARQLWGYYALDIWGQGTLVTVSS VL: DIQLTQSPSSLSASVGDRVTITCSAHISVSYMYWYQQKPGKAPKLLIYDMSNLASGVPSRFSGSGSGTDFTLTISSLQPEDFATYYCMQWSGYPYTFGQGTKVEIK"

# More lines, now with the values behind:
row,Binder,koff
1,"anti-IL-6 Fab, light chain Q89S (Fab, V domains shown, see m39) VH: EVQLVESGGGLVQPGGSLRLSCAASGFTFSPFAMSWVRQAPGKGLEWVAKISPGGSWTYYSDTVTGRFTFSLDTSKSTAYLQMNSLRAEDTAVYYCARQLWGYYALDIWGQGTLVTVSS VL: DIQLTQSPSSLSASVGDRVTITCSASISVSYMYWYQQKPGKAPKLLIYDMSNLASGVPSRFSGSGSGTDFTLTISSLQPEDFATYYCMSWSGYPYTFGQGTKVEIK",0.00601 s⁻¹
2,"anti-IL-6 Fab, light chain S30G (Fab, V domains shown, see m39) VH: EVQLVESGGGLVQPGGSLRLSCAASGFTFSPFAMSWVRQAPGKGLEWVAKISPGGSWTYYSDTVTGRFTFSLDTSKSTAYLQMNSLRAEDTAVYYCARQLWGYYALDIWGQGTLVTVSS VL: DIQLTQSPSSLSASVGDRVTITCSASISVGYMYWYQQKPGKAPKLLIYDMSNLASGVPSRFSGSGSGTDFTLTISSLQPEDFATYYCMQWSGYPYTFGQGTKVEIK",0.00677 s⁻¹
3,"anti-IL-6 Fab, light chain S28E (Fab, V domains shown, see m39) VH: EVQLVESGGGLVQPGGSLRLSCAASGFTFSPFAMSWVRQAPGKGLEWVAKISPGGSWTYYSDTVTGRFTFSLDTSKSTAYLQMNSLRAEDTAVYYCARQLWGYYALDIWGQGTLVTVSS VL: DIQLTQSPSSLSASVGDRVTITCSASIEVSYMYWYQQKPGKAPKLLIYDMSNLASGVPSRFSGSGSGTDFTLTISSLQPEDFATYYCMQWSGYPYTFGQGTKVEIK",0.00451 s⁻¹
4,"anti-IL-6 Fab, light chain S24P (Fab, V domains shown, see m39) VH: EVQLVESGGGLVQPGGSLRLSCAASGFTFSPFAMSWVRQAPGKGLEWVAKISPGGSWTYYSDTVTGRFTFSLDTSKSTAYLQMNSLRAEDTAVYYCARQLWGYYALDIWGQGTLVTVSS VL: DIQLTQSPSSLSASVGDRVTITCPASISVSYMYWYQQKPGKAPKLLIYDMSNLASGVPSRFSGSGSGTDFTLTISSLQPEDFATYYCMQWSGYPYTFGQGTKVEIK",0.00397 s⁻¹
5,"anti-IL-6 Fab, light chain S30A (Fab, V domains shown, see m39) VH: EVQLVESGGGLVQPGGSLRLSCAASGFTFSPFAMSWVRQAPGKGLEWVAKISPGGSWTYYSDTVTGRFTFSLDTSKSTAYLQMNSLRAEDTAVYYCARQLWGYYALDIWGQGTLVTVSS VL: DIQLTQSPSSLSASVGDRVTITCSASISVAYMYWYQQKPGKAPKLLIYDMSNLASGVPSRFSGSGSGTDFTLTISSLQPEDFATYYCMQWSGYPYTFGQGTKVEIK",0.00654 s⁻¹
6,"anti-IL-6 Fab, light chain S51K (Fab, V domains shown, see m39) VH: EVQLVESGGGLVQPGGSLRLSCAASGFTFSPFAMSWVRQAPGKGLEWVAKISPGGSWTYYSDTVTGRFTFSLDTSKSTAYLQMNSLRAEDTAVYYCARQLWGYYALDIWGQGTLVTVSS VL: DIQLTQSPSSLSASVGDRVTITCSASISVSYMYWYQQKPGKAPKLLIYDMKNLASGVPSRFSGSGSGTDFTLTISSLQPEDFATYYCMQWSGYPYTFGQGTKVEIK",0.00461 s⁻¹
7,"anti-IL-6 Fab, light chain S55I (Fab, V domains shown, see m39) VH: EVQLVESGGGLVQPGGSLRLSCAASGFTFSPFAMSWVRQAPGKGLEWVAKISPGGSWTYYSDTVTGRFTFSLDTSKSTAYLQMNSLRAEDTAVYYCARQLWGYYALDIWGQGTLVTVSS VL: DIQLTQSPSSLSASVGDRVTITCSASISVSYMYWYQQKPGKAPKLLIYDMSNLAIGVPSRFSGSGSGTDFTLTISSLQPEDFATYYCMQWSGYPYTFGQGTKVEIK",0.00505 s⁻¹
8,"anti-IL-6 Fab, light chain S51R (Fab, V domains shown, see m39) VH: EVQLVESGGGLVQPGGSLRLSCAASGFTFSPFAMSWVRQAPGKGLEWVAKISPGGSWTYYSDTVTGRFTFSLDTSKSTAYLQMNSLRAEDTAVYYCARQLWGYYALDIWGQGTLVTVSS VL: DIQLTQSPSSLSASVGDRVTITCSASISVSYMYWYQQKPGKAPKLLIYDMRNLASGVPSRFSGSGSGTDFTLTISSLQPEDFATYYCMQWSGYPYTFGQGTKVEIK",0.00467 s⁻¹
9,"anti-IL-6 Fab, light chain S26K (Fab, V domains shown, see m39) VH: EVQLVESGGGLVQPGGSLRLSCAASGFTFSPFAMSWVRQAPGKGLEWVAKISPGGSWTYYSDTVTGRFTFSLDTSKSTAYLQMNSLRAEDTAVYYCARQLWGYYALDIWGQGTLVTVSS VL: DIQLTQSPSSLSASVGDRVTITCSAKISVSYMYWYQQKPGKAPKLLIYDMSNLASGVPSRFSGSGSGTDFTLTISSLQPEDFATYYCMQWSGYPYTFGQGTKVEIK",0.00441 s⁻¹
